{"source": "patent US20230270832A1", "about": "“MAGEA1 IMMUNOGENIC PEPTIDES, BINDING PROTEINS RECOGNIZING MAGEA1 IMMUNOGENIC PEPTIDES, AND USES THEREOF” (TScan Therapeutics, Inc., priority 2021, published 2023)", "molecules": {"B1": {"name": "TCR 32-41: T cell receptor recognizing MAGEA1 epitope presented by HLA-C*07:02; alpha TRAV27/TRAJ52, beta TRBV12-4/TRBJ1-4; wild type, HM and MGTM sequences listed (protein)", "TCR alpha": "QLLEQSPQFLSIQEGENLTVYCNSSSVFSSLQWYRQEPGEGPVLLVTVVTGGEVKKLKRLTFQFGDARKDSSLHITAAQPGDTGLYLCAGDESISYGKLTFGQGTILTVHPNIQNPEPAVYQLKDPRSQDSTLCLFTDFDSQINVPKTMESGTFITDKCVLDMKAMDSKSNGAIAWSNQTSFTCQDIFKETNATYPSSDVPCDATLTEKSFETDMNLNFQNLLVMVLRILLLKVAGFNLLMTLRLWSS", "TCR beta": "DAGVIQSPRHEVTEMGQEVTLRCKPISGHDYLFWYRQTMMRGLELLIYFNNNVPIDDSGMPEDRFSAKMPNASFSTLKIQPSEPRDSAVYFCASSFLGWNEKLFFGSGTQLSVLEDLRNVTPPKVSLFEPSKAEIANKQKATLVCLARGFFPDHVELSWWVNGKEVHSGVCTDPQAYKESNYSYCLSSRLRVSATFWHNPRNHFRCQVQFHGLSEEDKWPEGSPKPVTQNISAEAWGRADCGITSASYQQGVLSATILYEILLGKATLYAVLVSTLVVMAMVKRKNS"}}, "key": {"[1]": {"tested_on": "cell lines with low to zero MAGEA1 expression", "type": "cell-based, human", "procedure": "(§1) Cancer cell lines were purchased from ATCC (Manassas, Vα.) and HEK293T cells were originally from Takara Bio (Shiga, Japan). All media were supplemented with […], except U266B1 which required 15% FBS, and 1% penicillin and incubated at 37° C. in 5% CO2. A101D (high MAGE-A1 expresing cells; TPM: 359), A2058 (medium MAGE-A1 expresing cells; TPM: 128), HS294T, and HEK293T cells were maintained in complete DMEM. SK-MEL-5 was cultured in complete EMEM, whereas U266B1, NCIH1437 and 786-0 required complete RPMI. Untransduced cancer cells were maintained in preparation for the T cell recognition assay, and 10^6 cells of each cell line were introduced with Incucyte® NucLight™ Red lentivirus reagent (Sartorius, Gottingen, Germany) Positively-labeled cells were selected using 1.5 ug/mL of puromycin over 72 hours.\nCancer cells selected for Incucyte® NucLight™ analysis were seeded into 96-well flat bottom plates (Corning, Flintshire, UK) at 10^4 cells. On the same day, T cells were thawed, washed in complete RPMI-1640, and allowed to rest overnight in medium with 50 U/mL IL-2 (PeproTech), 5 ng/mL IL-7, and 5 ng/mL IL-15 (R&D Systems). All cells were rested overnight at 37° C. in 5% CO2. […] Imaging utilized a 4x objective lens and data were analyzed using the Incucyte® Basic Software. […]"}, "[2]": {"tested_on": "cancer cells that express MAGEA1", "assay": "T cell recognition assay on cancer cell lines", "type": "cell-based, human", "conditions": "IFNγ release, CD137/CD69 double-positive staining", "procedure": "To detect reactivity to cancer cell lines, wild-type cancer cell lines were seeded in a 96-well flat bottom plate and rested overnight at 37° C. in 5% CO2. On the following day, T cells were thawed, washed in complete RPMI-1640 medium, and added to the wells for an effector to target (E:T) ratio of 1:1 for INFγ measurement or 1:4 for flow cytometry analysis of activation-induced markers. The co-culture was incubated overnight. Cells were then harvested by pipetting, transferred to V-bottom 96-well plates, and centrifuged at 2,000 rpm for 2 minutes. The supernatant was collected for IFNγ measurement using a human IFNγ 3rd generation single-plex assay (Protein Simple). For flow cytometry analysis (Cytoflex S™ instrument, Beckman Coulter), cell pellets were washed with FACS buffer (PBS, 0.5% BSA, 2 mM EDTA) and stained for activation-induced markers, including PE-conjugated anti-CD137 (Miltenyi), AF647-conjugated anti-CD69 (Biolegend), and BV421-conjugated anti-CD8 (BioLegend).\nas §1"}, "[3]": {"tested_on": ">600,000 protein fragments spanning every wild-type (w.t.) human protein", "assay": "Genome-wide SafetyScan off-target screen", "type": "cell-based", "conditions": "overexpressed 90-aa protein fragments", "procedure": "Primary CD8+ T cells were prepared as described above to express HN-P32-41. Triplicate wells transduced with lentiviral particles to express HN-32-41 combined in fresh complete T cell medium, and expanded until Day 5 in a G-Rex° 10 culture vessel (Wilson Wolf). On Day 5, cells were harvested, and cell concentrations were adjusted to 100 ×10^6 CD3^+ T cells/mL in EasySep buffer (StemCell Inc) and FcBlock solution with CD34 magnetic beads (Miltenyi) for 30 minutes at 4C, washed with EasySep buffer, and separated using a QuadroMACS® Separator and LS columns (Miltenyi). Isolated cells were washed and resuspended in fresh complete T cell medium and expanded in G-Rex®10 flasks (Wilson Wolf) until day 12, at which point cells were frozen in CryoStor® CS10 and stored at liquid nitrogen until use.\nCD8+ T cells expressing HN-32-41 were thawed and restimulated (further expanded) by co-culturing T cells with irradiated (60 grays) allogeneic PBMCs in the presence of 0.1 ug/mL anti-CD3 (OKT3, eBioscience) and 50 U/mL recombinant IL-2 (Peprotech) in fresh T cell medium (RPMI 1640 supplemented with 10% heat-inactivated fetal bovine serum (FBS), 100 IU/mL penicillin, 100 μg/mL streptomycin, recombinant human IL-2 [50 U/mL, PeproTech]) in GRex® 100 flasks (Wilson Wolf). 50 U/mL recombinant IL-2 was added to expanding cells every other day until day 6. […]"}}, "data": [{"molecule": "B1", "values": [{"measurement": "cytotoxic activity (killing) on cell lines with low to zero MAGEA1", "setting": "[1]", "value": "does not kill cell lines with low to zero MAGEA1 expression"}, {"measurement": "recognition of cancer cells", "setting": "[2]", "value": "recognize cancer cells that express MAGEA1"}, {"measurement": "recognition of cancer cells", "setting": "[2]; listed as TCR 41", "value": "recognize"}, {"measurement": "putative off-targets identified in screen", "setting": "[3]", "value": "seven potential off-targets"}]}]}
